The text below walks through data of PMC10673952, “Stochastic chain termination in bacterial pilus assembly” (Nature Communications, 2023).

T1: FimI-FimAtHis (the two subunits of the ternary FimCHisIA complex) (E. coli W3110 | E. coli, UniProt P39264 20-179; P04128 37-182)
T1 construct: also called FimI-FimA part of FimCHisIA
T1 sequence (looked up) 1: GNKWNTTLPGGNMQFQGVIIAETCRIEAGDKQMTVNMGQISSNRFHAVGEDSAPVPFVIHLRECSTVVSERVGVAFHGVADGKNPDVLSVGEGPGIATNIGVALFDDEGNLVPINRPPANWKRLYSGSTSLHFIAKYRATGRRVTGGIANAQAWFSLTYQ
T1 sequence (looked up) 2: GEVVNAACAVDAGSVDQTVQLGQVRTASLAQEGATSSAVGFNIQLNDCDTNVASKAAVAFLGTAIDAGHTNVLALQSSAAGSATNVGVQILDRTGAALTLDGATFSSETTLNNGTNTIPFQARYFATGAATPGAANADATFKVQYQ

T2: FimF-FimGt (the two subunits of the ternary FimCHisFG complex) (E. coli, UniProt P08189 21-176; P08190 24-167)
T2 chain 1: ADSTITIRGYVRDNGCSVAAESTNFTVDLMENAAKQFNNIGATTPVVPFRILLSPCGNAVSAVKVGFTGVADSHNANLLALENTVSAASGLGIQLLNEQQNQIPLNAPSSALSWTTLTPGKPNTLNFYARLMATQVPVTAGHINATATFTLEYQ
T2 chain 2: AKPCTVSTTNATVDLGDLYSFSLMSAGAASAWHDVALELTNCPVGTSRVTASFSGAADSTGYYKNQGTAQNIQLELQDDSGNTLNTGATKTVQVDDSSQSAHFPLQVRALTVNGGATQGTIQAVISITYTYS

T3: FimFt (E. coli)
T3 chain: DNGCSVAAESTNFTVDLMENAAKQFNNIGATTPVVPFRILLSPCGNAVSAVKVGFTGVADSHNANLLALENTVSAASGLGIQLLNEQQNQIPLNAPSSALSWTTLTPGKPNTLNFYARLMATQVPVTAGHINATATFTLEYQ

B1: FimAtHis (wild-type FimA missing residues 1-13 but with an N-terminal hexahistidine tag) (domain or fragment, E. coli, UniProt P04128 37-182, looked up)
chain: T1 sequence (looked up) 2
notes: also called FimAt (in the FimCHisIA structure)
B2: FimI (natural protein, E. coli W3110, UniProt P39264 20-179, looked up)
chain: T1 sequence (looked up) 1
notes: also called assembly terminator subunit FimI
B3: FimA (natural protein, E. coli, UniProt P04128 24-182, looked up)
chain: AATTVNGGTVHFKGEVVNAACAVDAGSVDQTVQLGQVRTASLAQEGATSSAVGFNIQLNDCDTNVASKAAVAFLGTAIDAGHTNVLALQSSAAGSATNVGVQILDRTGAALTLDGATFSSETTLNNGTNTIPFQARYFATGAATPGAANADATFKVQYQ
notes: also called main structural pilus subunit FimA; FimA wild-type
B4: FimC (natural protein, E. coli, UniProt P31697 37-241, looked up)
chain: GVALGATRVIYPAGQKQEQLAVTNNDENSTYLIQSWVENADGVKDGRFIVTPPLFAMKGKKENTLRILDATNNQLPQDRESLFWMNVKAIPSMDKSKLTENTLQLAIISRIKLYYRPAKLALPPDQAAEKLRFRRSANSLTLINPTPYYLTVTELNAGTRVLENALVPPMGESTVKLPSDAGSNITYRTINDYGALTPKMTGVME
notes: also called periplasmic chaperone FimC; untagged FimC; source: in FimCF and FimCG co-expressed in the periplasm of E. coli HM125
B5: FimCHis (FimC with C-terminal hexahistidine tag) (natural protein, E. coli, UniProt P31697 37-241, looked up)
chain: B4 chain
B6: FimAt (residues 18-159 of FimA) (domain or fragment, E. coli, UniProt P04128 41-182, looked up)
chain: NAACAVDAGSVDQTVQLGQVRTASLAQEGATSSAVGFNIQLNDCDTNVASKAAVAFLGTAIDAGHTNVLALQSSAAGSATNVGVQILDRTGAALTLDGATFSSETTLNNGTNTIPFQARYFATGAATPGAANADATFKVQYQ

Assay [1] addresses B5. Kind of assay: crystal structure; FimCHis-FimI-FimAtHis complex, 2.8 Å, space group P6(1), two complexes in the asymmetric unit, crystals at 293 K from 0.8 M sodium formate, 100 mM Tris/acetic acid pH 8.5, 16% PEG 4000. To be noted: both partners purified.
Assay [2] deals with B2. Kind of assay: crystal structure. To be noted: both partners purified.
The target of assay [3] is B5. Kind of assay: crystal structure. To be noted: both partners purified.
The assay “FimC” has as its target B4. Kind of assay: refolding of the subunit with the chaperone and co-purification (cation exchange chromatography, SEC); denatured, disulfide-intact subunit diluted into buffer with an excess of FimC or FimCHis; complex purified by cation exchange and (not for FimCHisI) Superdex 75; FimCA eluted as a 1:1 complex; identity by ESI-MS. The conditions noted are these: both partners purified.

Assay [4] concerns the target B3. Kind of assay: chaperone exchange kinetics followed by analytical cation exchange chromatography; 4 μM complex incubated with a 9-fold molar excess (36 μM) of the differently tagged FimC (untagged FimC against FimCHis complexes, FimCHis against FimCA and FimCAA); 20 mM MES-NaOH pH 6.0, 37 °C; single-exponential fit. The conditions noted are these: both partners purified.

In assay [5] the target is B3. Kind of assay: cell-based or functional assay.
For assay [6], the target named is B2. Kind of assay: cell-based or functional assay.
Assay [7] deals with T1, FimI-FimAtHis (the two subunits of the …). Kind of assay: chaperone exchange kinetics followed by analytical cation exchange chromatography; 4 μM complex incubated with a 9-fold molar excess (36 μM) of the differently tagged FimC (untagged FimC against FimCHis complexes, FimCHis against FimCA and FimCAA); 20 mM MES-NaOH pH 6.0, 37 °C; single-exponential fit. The conditions noted are these: both partners purified.

The target in assay [8] is T2, FimF-FimGt (the two subunits of the …). The assay is described as above. To be noted: both partners purified.
A further assay addresses T3, FimFt. Described as above. To be noted: both partners purified.
Assay [9] has as its target B2. The description is as above. To be noted: both partners purified.
Assay [10] concerns the target B3. Kind of assay: reconstitution by donor strand exchange and co-purification (cation exchange chromatography, SEC); 2 μM FimCA with 10 μM FimCAt at pH 7.0 and 37 °C overnight; FimCAA purified on Resource S and Superdex 75; identity by ESI-MS. The conditions noted are these: both partners purified.

As for B1, the binding result (in assay [1]; with FimI [2]) was “binds” in each case.
For B2, the binding result (in assay [3]; in the assay with FimC) was “binds” throughout.
With B3, the binding result with FimC is “binds”.
For B4, in the assay with FimA [4], the dissociation half-life worked out at 26 ± 1 s. Further, in the assay with FimA [5], the “FimC-catalyzed folding of oxidized, unfolded FimA, rate constant by stopped-flow tryptophan fluorescence (pseudo-first-order fit, pH 8.0)” value was 43000 M^−1 s^−1. The “FimC-catalyzed folding of oxidized, unfolded FimI, rate constant by stopped-flow tryptophan fluorescence (pseudo-first-order fit, pH 8.0)” value with FimI [6] came out at 73000 M^−1 s^−1.
With B5, the dissociation half-life in [7] was 3.85 ± 0.43 h; in [8], 1.41 ± 0.12 h; with FimFt it was 1.58 ± 0.14 h; with FimI [9], 1.05 ± 0.095 min.
On to B6, for which the binding result in the assay with FimA [10] and with FimC was “binds” in each case.
